Among the data in paper PMC9352680, “A comprehensive thermodynamic model for RNA binding by the Saccharomyces cerevisiae Pumilio protein PUF4” are Kd values, retold here.

Numbering of substitutions follows the chain as printed. Names may count otherwise.

To fix the notation:
B1: Ie_S4_P5E.1_K5.1_C5.1_H5.1_[+1CCT]_A5.1_F5.1_T5.1 (ssRNA)
RNA: UUUGACAACUGAUCGUUCUUUCUUCCUGUAUUAUUAUUCUUUCUCGAUCAGUUGUCUUU
B2: Ie_S4_P5E.1_K5.1_C5.1_H5.1_[+3TCC]_A5.1_F5.1_T5.1 (ssRNA)
RNA: B1 RNA with C25G, C26U, G28C, U29C
B3: Ie_S4_P5E.1_K5.1_C5.1_H5.1_[+2TCC]_A5.1_F5.1_T5.1 (ssRNA)
RNA: B1 RNA with C25G, C26U, U27C, G28C
B4: Ie_S4_P5E.1_K5.1_C5.1_H5.1_[+3TCT]_A5.1_F5.1_T5.1 (ssRNA)
RNA: B1 RNA with C25G, C26U, G28C
B5: Ie_S4_P5E.1_K5.1_C5.1_H5.1_[+1CTT]_A5.1_F5.1_T5.1 (ssRNA)
RNA: B1 RNA with C26U
B6: Ie_S4_P5E.1_K5.1_C5.1_H5.1_[+3CCC]_A5.1_F5.1_T5.1 (ssRNA)
RNA: B1 RNA with C25G, C26U, U27C, G28C, U29C
B7: Ie_S4_P5E.1_K5.1_C5.1_H5.1_[+1CTC]_A5.1_F5.1_T5.1 (ssRNA)
RNA: B1 RNA with C26U, U27C
B8: Ie_S4_P4E.1_K4.1_C4.1_H4.1_A4.1_F4.1_[+9C]_T4.1 (ssRNA)
RNA: UUUGACAACUGAUCGUUCUUUCUUGUAUAUUACUUCUUUCUCGAUCAGUUGUCUUU
B9: Ie_S4_P4E.1_K4.1_C4.1_H4.1_A4.1_F4.1_[+9CTC]_T4.1 (ssRNA)
RNA: UUUGACAACUGAUCGUUCUUUCUUGUAUAUUACUCUUCUUUCUCGAUCAGUUGUCUUU
B10: Ie_S4_P4E.1_K4.1_C4.1_H4.1_A4.1_F4.1_[+9TTC]_T4.1 (ssRNA)
RNA: B9 RNA with C33U
B11: Ie_S4_P5E.1_K5.1_C5.1_H5.1_[+3TC]_A5.1_F5.1_T5.1 (ssRNA)
RNA: B9 RNA with A27U, U28C, C33U, C35A
B12: Ie_S4_P4E.1_K4.1_C4.1_H4.1_A4.1_F4.1_[+9CTT]_T4.1 (ssRNA)
RNA: B9 RNA with C35U
B13: Ie_S4_P5E.1_K5.1_C5.1_H5.1_[+3CT]_A5.1_F5.1_T5.1 (ssRNA)
RNA: B9 RNA with A27C, C33U, C35A
B14: Ie_S4_P5E.1_K5.1_C5.1_H5.1_[+4CC]_A5.1_F5.1_T5.1 (ssRNA)
RNA: B9 RNA with U28C, A29C, C33U, C35A
B15: Ie_S4_P5E.1_K5.1_C5.1_H5.1_[+3TT]_A5.1_F5.1_T5.1 (ssRNA)
RNA: B9 RNA with A27U, C33U, C35A
B16: Ie_S4_P5E.1_K5.1_C5.1_H5.1_[+1TT]_A5.1_F5.1_T5.1 (ssRNA)
RNA: B9 RNA with G25U, A27G, C33U, C35A
B17: Ie_S4_P5E.1_K5.1_C5.1_H5.1_[+4CT]_A5.1_F5.1_T5.1 (ssRNA)
RNA: B9 RNA with U28C, A29U, C33U, C35A
B18: Ie_S4_P5E.1_K5.1_C5.1_H5.1_[+1TC]_A5.1_F5.1_T5.1 (ssRNA)
RNA: B9 RNA with G25U, U26C, A27G, C33U, C35A
B19: Ie_S4_P4E.1_K4.1_C4.1_H4.1_A4.1_F4.1_[+9TCTCT]_T4.1 (ssRNA)
RNA: UUUGACAACUGAUCGUUCUUUCUUGUAUAUUAUCUCUUUCUUUCUCGAUCAGUUGUCUUU
B20: Ie_S4_P5E.1_K5.1_C5.1_H5.1_[+4CCCT]_A5.1_F5.1_T5.1 (ssRNA)
RNA: B19 RNA with U28C, A29C, U30C, A32U, C34A, C36U, U37A
B21: Ie_S4_P4E.1_K4.1_C4.1_H4.1_A4.1_F4.1_[+9CCCTT]_T4.1 (ssRNA)
RNA: B19 RNA with U33C, U35C, C36U
B22: Ie_S4_P5E.1_K5.1_C5.1_H5.1_[+4CCTC]_A5.1_F5.1_T5.1 (ssRNA)
RNA: B19 RNA with U28C, A29C, U31C, A32U, C34A, C36U, U37A
B23: Ie_S4_P5E.1_K5.1_C5.1_H5.1_[+3CTCT]_A5.1_F5.1_T5.1 (ssRNA)
RNA: B19 RNA with A27C, A29C, U31A, A32U, C34A, C36U, U37A
B24: Ie_S4_P5E.1_K5.1_C5.1_H5.1_[+4TTCC]_A5.1_F5.1_T5.1 (ssRNA)
RNA: B19 RNA with A29U, U30C, U31C, A32U, C34A, C36U, U37A
B25: Ie_S4_P4E.1_K4.1_C4.1_H4.1_A4.1_F4.1_[+9CTCT]_T4.1 (ssRNA)
RNA: UUUGACAACUGAUCGUUCUUUCUUGUAUAUUACUCUUUCUUUCUCGAUCAGUUGUCUUU
B26: Ie_S4_P5E.1_K5.1_C5.1_H5.1_[+2TCT]_A5.1_F5.1_T5.1 (ssRNA)
RNA: B1 RNA with C25G, C26U, U27C, G28U
B27: Ie_S4_P5E.1_K5.1_C5.1_H5.1_[+4CTT]_A5.1_F5.1_T5.1 (ssRNA)
RNA: B1 RNA with C25G, C26U, U27A, G28C, A30U
B28: Ie_S4_P4E.1_K4.1_C4.1_H4.1_A4.1_F4.1_[+9TCTC]_T4.1 (ssRNA)
RNA: B25 RNA with C33U, U34C, C35U, U36C
B29: Ie_S4_P5E.1_K5.1_C5.1_H5.1_[+4CCC]_A5.1_F5.1_T5.1 (ssRNA)
RNA: B1 RNA with C25G, C26U, U27A, G28C, U29C, A30C
B30: Ie_S4_P5E.1_K5.1_C5.1_H5.1_[+4CTC]_A5.1_F5.1_T5.1 (ssRNA)
RNA: B1 RNA with C25G, C26U, U27A, G28C, A30C
B31: Ie_S4_P5E.1_K5.1_C5.1_H5.1_[+3TTT]_A5.1_F5.1_T5.1 (ssRNA)
RNA: B1 RNA with C25G, C26U, G28U
B32: Ie_S4_P5E.1_K5.1_C5.1_H5.1_[+4TCC]_A5.1_F5.1_T5.1 (ssRNA)
RNA: B1 RNA with C25G, C26U, U27A, G28U, U29C, A30C
B33: Ie_S4_P4E.1_K4.1_C4.1_H4.1_A4.1_F4.1_[+9CC]_T4.1 (ssRNA)
RNA: UUUGACAACUGAUCGUUCUUUCUUGUAUAUUACCUUCUUUCUCGAUCAGUUGUCUUU
B34: Ie_S4_P4E.1_K4.1_C4.1_H4.1_A4.1_F4.1_[+9TC]_T4.1 (ssRNA)
RNA: B33 RNA with C33U
B35: Ie_S4_P5E.1_K5.1_C5.1_H5.1_[+3T]_A5.1_F5.1_T5.1 (ssRNA)
RNA: B33 RNA with A27U, U28A, A29U, U31A, A32U, C33U, C34A
B36: Ie_S4_P5E.1_K5.1_C5.1_H5.1_[+3C]_A5.1_F5.1_T5.1 (ssRNA)
RNA: B33 RNA with A27C, U28A, A29U, U31A, A32U, C33U, C34A
B37: Ie_S4_P5E.1_K5.1_C5.1_H5.1_[+1CCCT]_A5.1_F5.1_T5.1 (ssRNA)
RNA: UUUGACAACUGAUCGUUCUUUCUUCCCUGUAUUAUUAUUCUUUCUCGAUCAGUUGUCUUU
B38: Ie_S4_P5E.1_K5.1_C5.1_H5.1_[+3TCTC]_A5.1_F5.1_T5.1 (ssRNA)
RNA: B37 RNA with C25G, C26U, C27U, U28C, G29U, U30C
B39: Ie_S4_P5E.1_K5.1_C5.1_H5.1_[+3TTCC]_A5.1_F5.1_T5.1 (ssRNA)
RNA: B37 RNA with C25G, C26U, C27U, G29C, U30C
B40: Ie_S4_P5E.1_K5.1_C5.1_H5.1_[+2CCTC]_A5.1_F5.1_T5.1 (ssRNA)
RNA: B37 RNA with C25G, G29C
B41: Ie_S4_P5E.1_K5.1_C5.1_H5.1_[+2TTCC]_A5.1_F5.1_T5.1 (ssRNA)
RNA: B37 RNA with C25G, C26U, C27U, U28C, G29C
B42: Ie_S4_P5E.1_K5.1_C5.1_H5.1_[+3CCCTT]_A5.1_F5.1_T5.1 (ssRNA)
RNA: UUUGACAACUGAUCGUUCUUUCUUGUCCCUUAUUAUUAUUCUUUCUCGAUCAGUUGUCUUU
B43: Ie_S4_P5E.1_K5.1_C5.1_H5.1_[+4TTCCT]_A5.1_F5.1_T5.1 (ssRNA)
RNA: B42 RNA with C27A, C28U, C29U, U30C, U31C, A32U
B44: Ic_S2_P3E.1_K3.1_C3.1_H3.1_A3.1_[A6G]_F3.1_T3.1 (ssRNA)
RNA: UUUGAUUAAUAUGAUAUCGUUCUUUCUUGUAUGUAUUCUUUCUCGAUAUCAUAUUAAUCUUU
B45: Ib_S2_P3E.1_K3.1_C3.1_H3.1_[A4G]_A3.1_[A6C]_F3.1_T3.1 (ssRNA)
RNA: B44 RNA with A31G, G33C
B46: Ib_S2_P3E.1_K3.1_C3.1_H3.1_[A4C]_A3.1_[T5A]_F3.1_T3.1 (ssRNA)
RNA: B44 RNA with A31C, U32A, G33A
B47: Ib_S2_P3E.1_K3.1_C3.1_H3.1_[A4G]_A3.1_[A6T]_F3.1_T3.1 (ssRNA)
RNA: B44 RNA with A31G, G33U
B48: Ib_S2_P3E.1_K3.1_C3.1_H3.1_[A4T]_A3.1_[T5A]_F3.1_T3.1 (ssRNA)
RNA: B44 RNA with A31U, U32A, G33A

The target in the data set is T1, PUF4 RNA-binding domain (Saccharomyces cerevisiae, UniProt P25339 537-888).
T1 sequence: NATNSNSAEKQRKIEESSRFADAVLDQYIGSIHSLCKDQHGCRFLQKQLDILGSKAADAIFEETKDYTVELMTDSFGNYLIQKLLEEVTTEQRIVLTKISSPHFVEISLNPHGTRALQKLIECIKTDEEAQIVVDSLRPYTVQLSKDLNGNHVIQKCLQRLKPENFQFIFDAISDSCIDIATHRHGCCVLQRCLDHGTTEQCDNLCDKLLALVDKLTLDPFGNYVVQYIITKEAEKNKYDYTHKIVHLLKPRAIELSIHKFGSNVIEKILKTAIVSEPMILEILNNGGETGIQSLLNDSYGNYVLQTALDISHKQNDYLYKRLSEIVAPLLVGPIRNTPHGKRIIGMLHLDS
Description: Mg; RNA-MaP; 20 mM Na-HEPES pH 7.4, 30 mM KOAc, 0.75 mM MgCl2, 0.1% Tween-20, 5% glycerol, 0.1 mg/mL BSA, 2 mM DTT; 25 C; 0.0125-409.6 nM protein. As to conditions: tags: N-His6-TEV cleaved; C-SNAP kept, Cy3B-labelled; label: tethered on chip by stalled RNA polymerase.
In general, Kd refers to the concentration at which binding is half-saturated. A higher Kd goes with weaker binding. Consider B1, for which binding was put at a Kd of 1.07 nM.

B2: the Kd turned out to be 9.83 nM. As to B3, the affinity, expressed as Kd, was 18.4 nM. The same measure for B4: 8.87 nM; for B5: 1.38 nM. With B6 the figure was 27.8 nM; with B7, 216 nM; with B8, 1.51 nM. In turn, B9 showed a Kd of 1.39 nM.

B10: the Kd worked out at 0.42 nM. The same measure for B11: 2.68 nM; for B12: 1.08 nM.

In turn, B13 showed a Kd of 10.9 nM.

In turn, B14 had a Kd of 1.43 nM.

As to B15, binding was characterised by a dissociation constant (Kd) of 8.89 nM. B16 returned a Kd of 1.52 nM.

In turn, B17 showed a Kd of 0.642 nM. For B18, binding was characterised by a dissociation constant (Kd) of 288 nM. With B19 the figure was 0.343 nM; with B20, 6.05 nM; with B21, 0.565 nM.

As for B22, the equilibrium dissociation constant (Kd) is 7.54 nM. The same measure for B23: 56.3 nM; for B24: 9.55 nM; for B25: 0.777 nM.

For B26, the Kd stood at 15.3 nM. The same measure for B27: 1.26 nM; for B28: 0.36 nM; for B29: 3.18 nM. The same measure for B30: 2.91 nM. The same measure for B31: 15.6 nM; for B32: 6.26 nM. In the case of B33, the Kd was determined as 0.607 nM.

B34: the Kd was 0.647 nM. The same measure for B35: 41.6 nM; for B36: 34.1 nM.

In turn, B37 came in with a Kd of 1.21 nM. The same measure for B38: 40.3 nM; for B39: 44.8 nM. On to B40, for which the dissociation constant Kd was 863 nM. With B41 the figure was 26.4 nM. The same measure for B42: 54.8 nM; for B43: 16.5 nM. The same measure for B44: 26.3 nM; for B45: 107 nM. B46: binding was put at a Kd of 1360 nM.

In the case of B47, the Kd was determined as 37 nM.

The molecule B48 displayed a Kd of 670 nM.
